Data reported in patent US20150337049A1 (Genmab, published 2015).
Residue numbers refer to the chain shown, from its start. Names may count otherwise.

B1: bsIgG1-CD3×HER2 (IgG1-huCLB-T3/4×HER2-169), wild-type Fc (bispecific antibody)
heavy 1: not shown
VL 1: EIVLTQSPATLSLSPGERATLSCSASSSVTYVHWYQQKPGQAPRLLIYDTSKLASGIPARFSGSGSGTDFTLTISSLEPEDFAVYYCFQGSGYPLTFGSGTKLEMR
heavy 2: not shown
VL 2: EIVLTQSPATLSLSPGERATLSCRASQSVSSYLAWYQQKPGQAPRLLIYDASNRATGIPARFSGSGSGTDFTLTISSLEPEDFAVYYCQQRSNWPRTFGQGTKVEIK
notes: also called bispecific IgG1-CD3×HER2; (bs)IgG-CD3×HER2
B2: bsIgG1-CD3×HER2-DANQ (IgG1-huCLB-T3/4×HER2-169 with D265A/N297Q) (bispecific antibody)
heavy 1: EVQLVESGGGLVKPGGSLRLSCAASGFTFSSYGMFWVRQAPGKGLEWVATISRYSRYIYYPDSVKGRFTISRDNAKNSLYLQMNSLRAEDTAVYYCARRPLYGSSPDYWGQGTLVTVSSASTKGPSVFPLAPSSKSTSGGTAALGCLVKDYFPEPVTVSWNSGALTSGVHTFPAVLQSSGLYSLSSVVTVPSSSLGTQTYICNVNHKPSNTKVDKRVEPKSCDKTHTCPPCPAPELLGGPSVFLFPPKPKDTLMISRTPEVTCVVVAVSHEDPEVKFNWYVDGVEVHNAKTKPREEQYQSTYRVVSVLTVLHQDWLNGKEYKCKVSNKALPAPIEKTISKAKGQPREPQVYTLPPSREEMTKNQVSLTCLVKGFYPSDIAVEWESNGQPENNYKTTPPVLDSDGSFLLYSKLTVDKSRWQQGNVFSCSVMHEALHNHYTQKSLSLSPGK
VL 1: B1 VL 1
heavy 2: QVQLVQSGAEVKKPGASVKVSCKASGYTFTNYGISWVRQAPGQGLEWMGWLSAYSGNTIYAQKLQGRVTMTTDTSTTTAYMELRSLRSDDTAVYYCARDRIVVRPDYFDYWGQGTLVTVSSASTKGPSVFPLAPSSKSTSGGTAALGCLVKDYFPEPVTVSWNSGALTSGVHTFPAVLQSSGLYSLSSVVTVPSSSLGTQTYICNVNHKPSNTKVDKRVEPKSCDKTHTCPPCPAPELLGGPSVFLFPPKPKDTLMISRTPEVTCVVVAVSHEDPEVKFNWYVDGVEVHNAKTKPREEQYQSTYRVVSVLTVLHQDWLNGKEYKCKVSNKALPAPIEKTISKAKGQPREPQVYTLPPSREEMTKNQVSLTCLVKGFYPSDIAVEWESNGQPENNYKTTPPVLDSDGSFFLYSRLTVDKSRWQQGNVFSCSVMHEALHNHYTQKSLSLSPGK
VL 2: B1 VL 2
B3: bsIgG1-CD3×HER2-DA (IgG1-huCLB-T3/4×HER2-169 with D265A) (bispecific antibody)
heavy 1: not shown
VL 1: B1 VL 1
heavy 2: not shown
VL 2: B1 VL 2
B4: bsIgG1-CD3×HER2-DAPS (IgG1-huCLB-T3/4×HER2-169 with D265A/P331S) (bispecific antibody)
heavy 1: B2 heavy 1 with Q299N, P333S
VL 1: B1 VL 1
heavy 2: B2 heavy 2 with Q301N, P335S
VL 2: B1 VL 2
B5: IgG1-CD3-DANQ (IgG1-huCLB-T3/4-F405L with D265A/N297Q) (antibody)
heavy: B2 heavy 1
VL: B1 VL 1
notes: IgG1, F405L
B6: IgG1-CD3-LFLEPS (IgG1-huCLB-T3/4-F405L with L234F/L235E/P331S) (antibody)
heavy: B2 heavy 1 with L236F, L237E, A267D, Q299N, P333S
VL: B1 VL 1
notes: IgG1, F405L
B7: IgG1-CD3-DA (IgG1-huCLB-T3/4-F405L with D265A) (antibody)
heavy: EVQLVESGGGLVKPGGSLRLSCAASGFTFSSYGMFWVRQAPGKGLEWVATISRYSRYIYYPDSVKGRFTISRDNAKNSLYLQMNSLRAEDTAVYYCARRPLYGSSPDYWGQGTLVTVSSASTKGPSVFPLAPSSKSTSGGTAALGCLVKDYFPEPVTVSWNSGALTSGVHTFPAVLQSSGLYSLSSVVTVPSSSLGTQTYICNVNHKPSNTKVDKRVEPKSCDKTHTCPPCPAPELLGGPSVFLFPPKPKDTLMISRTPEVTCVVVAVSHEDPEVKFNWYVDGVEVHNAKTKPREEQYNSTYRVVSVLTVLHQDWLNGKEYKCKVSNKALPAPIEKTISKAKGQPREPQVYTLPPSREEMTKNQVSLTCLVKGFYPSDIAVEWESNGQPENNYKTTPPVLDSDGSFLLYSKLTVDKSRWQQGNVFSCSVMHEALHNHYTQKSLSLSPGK
VL: B1 VL 1
notes: IgG1, F405L
B8: IgG1-CD3-LFLENQ (IgG1-huCLB-T3/4-F405L with L234F/L235E/N297Q) (antibody)
heavy: B2 heavy 1 with L236F, L237E, A267D
VL: B1 VL 1
notes: IgG1, F405L
B9: IgG1-CD3-LALA (IgG1-huCLB-T3/4-F405L with L234A/L235A) (antibody)
heavy: B2 heavy 1 with L236A, L237A, A267D, Q299N
VL: B1 VL 1
notes: IgG1, F405L
B10: IgG1-CD3-LFLEDA (IgG1-huCLB-T3/4-F405L with L234F/L235E/D265A) (antibody, name in EU numbering)
heavy: B2 heavy 1 with L236F, L237E, Q299N
VL: B1 VL 1
notes: IgG1, F405L
B11: bsIgG1-CD3×HER2-LALA (IgG1-huCLB-T3/4×HER2-169 with L234A/L235A) (bispecific antibody)
heavy 1: B2 heavy 1 with L236A, L237A, A267D, Q299N
VL 1: B1 VL 1
heavy 2: B2 heavy 2 with L238A, L239A, A269D, Q301N
VL 2: B1 VL 2
B12: IgG1-CD3-… (IgG1-huCLB-T3/4-F405L with L234F/L235E/D265A/N297Q/P331S) (antibody)
heavy: B2 heavy 1 with L236F, L237E, P333S
VL: B1 VL 1
notes: IgG1, F405L
B13: IgG1-CD3-DAPS (IgG1-huCLB-T3/4-F405L with D265A/P331S) (antibody)
heavy: B2 heavy 1 with Q299N, P333S
VL: B1 VL 1
notes: IgG1, F405L
B14: IgG1-CD3-N297Q (IgG1-huCLB-T3/4-F405L with N297Q) (antibody)
heavy: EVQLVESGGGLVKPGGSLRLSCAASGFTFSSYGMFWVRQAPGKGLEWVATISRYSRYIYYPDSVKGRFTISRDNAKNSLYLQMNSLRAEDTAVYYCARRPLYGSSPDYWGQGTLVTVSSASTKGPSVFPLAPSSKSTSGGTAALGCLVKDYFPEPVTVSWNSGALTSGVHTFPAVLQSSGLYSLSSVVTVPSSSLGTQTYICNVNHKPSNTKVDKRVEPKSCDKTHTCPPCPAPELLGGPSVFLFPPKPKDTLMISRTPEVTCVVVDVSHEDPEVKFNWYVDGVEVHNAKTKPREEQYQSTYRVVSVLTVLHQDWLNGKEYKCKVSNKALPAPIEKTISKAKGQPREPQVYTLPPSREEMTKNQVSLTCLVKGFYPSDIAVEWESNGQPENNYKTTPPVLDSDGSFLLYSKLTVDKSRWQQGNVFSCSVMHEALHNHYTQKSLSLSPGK
VL: B1 VL 1
notes: IgG1, F405L; also called NQ
B15: bsIgG1-CD3×HER2-LFLE (IgG1-huCLB-T3/4×HER2-169 with L234F/L235E) (bispecific antibody)
heavy 1: B2 heavy 1 with L236F, L237E, A267D, Q299N
VL 1: B1 VL 1
heavy 2: B2 heavy 2 with L238F, L239E, A269D, Q301N
VL 2: B1 VL 2
B16: IgG1-CD3-LFLE (IgG1-huCLB-T3/4-F405L with L234F/L235E) (antibody)
heavy: B2 heavy 1 with L236F, L237E, A267D, Q299N
VL: B1 VL 1
notes: IgG1, F405L

target: T1, C1q (from 3% pooled human serum) (human, UniProt P02745 23-245; P02746 28-253; P02747 29-245); experiment: ELISA, antibody coated, 3% pooled human serum, anti-C1q detection
T1 construct: Native C1q of pooled human serum, detected with rabbit anti-human C1q
Description: Plates were washed and blocked with PBS supplemented with 0.025% Tween 20 and 0.1% gelatine. […] Detection was performed by addition of 1 mg/mL 2,2′-azino-bis(3-ethylbenzothiazoline-6-sulfonic acid) (ABTS; Roche, Mannheim, Germany) for about 30 min. The reaction was stopped by the addition of 100 μL 2% oxalic acid. Absorbance was measured at 405 nm in a microplate reader (Biotek, Winooski, Vt.). Log transformed data were analyzed by fitting sigmoidal dose-response curves with variable slope using GraphPad Prism software.

Binder | binding result
B1 | binds
B2 | no binding (tested: coated at 7-30000 ng/mL)
B3 | no binding (tested: coated at 7-30000 ng/mL)
B4 | no binding (tested: coated at 7-30000 ng/mL)
B5 | no binding (tested: coated at 7-30000 ng/mL)
B6 | no binding (tested: coated at 7-30000 ng/mL)
B7 | no binding (tested: coated at 7-30000 ng/mL)
B8 | no binding (tested: coated at 7-30000 ng/mL)
B9 | no binding (tested: coated at 7-30000 ng/mL)
B10 | no binding (tested: coated at 7-30000 ng/mL)
B11 | no binding (tested: coated at 7-30000 ng/mL)
B12 | no binding (tested: coated at 7-30000 ng/mL)
B13 | no binding (tested: coated at 7-30000 ng/mL)
B14 | no binding (tested: coated at 7-30000 ng/mL)
B15 | no binding (tested: coated at 7-30000 ng/mL)
B16 | no binding (tested: coated at 7-30000 ng/mL)

target: T2, HER2 on HER2-positive AU565 cells (human, UniProt P04626 23-1255); experiment: FACS, AU565 cells
T2 construct: whole, on cells
Description: Cells (1×10^5 cells/well) were incubated in polystyrene 96-well round-bottom plates (Greiner bio-one 650101) with serial dilutions of antibody preparations (range 2 to 10000 ng/mL in 4-fold dilutions for Jurkat cells and range 1 to 3000 ng/mL in 4-fold dilutions for on AU565 cells) in 100 μL PBS/0.1% BSA/0.02% azide at 4° C. for 30 min.
After washing twice in PBS/0.1% BSA/0.02% azide, cells were incubated in 100 μL with secondary antibody at 4° C. for 30 min. As a secondary antibody, R-Phycoerythrin (PE)-conjugated goat-anti-human IgG F(ab′)₂ (109-116-098, Jackson ImmunoResearch Laboratories, Inc., West Grove, Pa.) diluted 1/100 in PBS/0.1% BSA/0.02% azide, was used for all experiments. Next, cells were washed twice in PBS/0.1% BSA/0.02% azide, resuspended in 150 μL PBS/0.1% BSA/0.02% azide and analyzed on a FACS CantoII (BD Biosciences). Binding curves were analyzed using non-linear regression (sigmoidal dose-response with variable slope) using GraphPad Prism V5.04 software (GraphPad Software, San Diego, Calif., USA).

binding result | Binder
binds | B1
binds | B2
binds | B3
binds | B4
binds | B11
binds | B15
